Consider eight molecules from patent publication US20240059799A1 (Pfizer, published 2024).

Changes are numbered by the printed parent chain.

First the molecules themselves.
T1: full-length human TL1A on CHO-K1 cells (human, UniProt O95150 1-251)
T1 construct: whole, on cells; also called cells over-expressing human TL1A
T1 sequence (looked up): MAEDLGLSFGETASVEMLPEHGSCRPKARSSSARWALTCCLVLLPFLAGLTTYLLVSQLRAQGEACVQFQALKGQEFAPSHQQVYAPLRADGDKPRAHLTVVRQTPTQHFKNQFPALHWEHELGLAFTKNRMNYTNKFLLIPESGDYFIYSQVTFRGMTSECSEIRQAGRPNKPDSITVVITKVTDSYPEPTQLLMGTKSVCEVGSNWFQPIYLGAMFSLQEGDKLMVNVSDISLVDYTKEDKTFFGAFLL

T2: recombinant human TL1A (human, UniProt O95150 71-251)
T2 chain: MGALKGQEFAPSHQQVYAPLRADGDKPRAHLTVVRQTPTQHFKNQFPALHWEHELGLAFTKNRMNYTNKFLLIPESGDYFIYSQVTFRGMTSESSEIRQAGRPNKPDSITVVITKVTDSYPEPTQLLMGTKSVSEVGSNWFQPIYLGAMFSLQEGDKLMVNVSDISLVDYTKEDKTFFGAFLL

T3: human IL-23 (human, UniProt P29460 23-328; Q9NPF7 20-189)
T3 sequence 1: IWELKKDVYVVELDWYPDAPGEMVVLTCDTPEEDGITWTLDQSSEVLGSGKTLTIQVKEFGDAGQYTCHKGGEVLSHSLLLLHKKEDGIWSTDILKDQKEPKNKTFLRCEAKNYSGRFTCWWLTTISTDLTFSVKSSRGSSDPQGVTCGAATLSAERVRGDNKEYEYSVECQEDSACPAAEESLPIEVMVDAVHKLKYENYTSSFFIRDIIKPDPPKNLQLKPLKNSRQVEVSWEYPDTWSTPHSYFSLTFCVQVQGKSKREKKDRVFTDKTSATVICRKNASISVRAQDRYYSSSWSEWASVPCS
T3 sequence 2: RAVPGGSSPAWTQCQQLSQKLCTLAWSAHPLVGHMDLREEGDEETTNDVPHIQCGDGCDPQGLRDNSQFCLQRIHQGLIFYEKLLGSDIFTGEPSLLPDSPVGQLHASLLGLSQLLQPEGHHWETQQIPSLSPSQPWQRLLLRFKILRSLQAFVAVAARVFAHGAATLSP

T4: human IL-12 (human, UniProt P29460 23-328; P29459 23-219)
T4 sequence 1: T3 sequence 1
T4 sequence 2: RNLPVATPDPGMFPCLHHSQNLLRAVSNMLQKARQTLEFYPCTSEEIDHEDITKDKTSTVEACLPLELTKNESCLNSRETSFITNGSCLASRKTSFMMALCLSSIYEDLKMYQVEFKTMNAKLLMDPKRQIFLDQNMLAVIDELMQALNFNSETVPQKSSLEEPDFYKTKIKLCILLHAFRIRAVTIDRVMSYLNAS

B1: [xTL1A]-0360 (antibody, human IgG1, kappa, V domains shown)
VH: not shown
VL: DIQMTQSPSSLSASVGDRVTITCRASQSVSSYLAWYQQKPGKAPKLLIYDASNRATGVPSRFSGSGSGTDFTLTISSLQPEDFATYYCQQRSNWPWTFGQGTKVEIKR
notes: bivalent disabled antibody, IgG1 effector-function-minimized/kappa
B2: p40TL1A-0001 bispecific antibody (bispecific antibody)
heavy 1: EVQLVQSGAEVKKPGESLKISCKGSGYSFTTYWLGWVRQMPGKGLDWIGIMSPVDSDIRYSPSFQGQVTMSVDKSITTAYLQWNSLKASDTAMYYCARRRPGQGYFDFWGQGTLVTVSSASTKGPSVFPLAPSSKSTSGGTAALGCLVKDYFPEPVTVSWNSGALTSGVHTFPAVLQSSGLYSLSSVVTVPSSSLGTQTYICNVNHKPSNTKVDKKVEPKSCRKTHTCPRCPAPEAAGAPSVFLFPPKPKDTLMISRTPEVTCVVVDVSHEDPEVKFNWYVDGVEVHNAKTKPREEQYNSTYRVVSVLTVLHQDWLNGKEYKCKVSNKALPAPIEKTISKAKGQPREPQVYTLPPSREEMTKNQVSLTCLVKGFYPSDIAVEWESNGQPENNYKTTPPVLDSDGSFFLYSRLTVDKSRWQQGNVFSCSVLHEALHSHYTQKSLSLSPGK
light 1: not shown
heavy 2: QVQLVQSGAEVKKPGASVKVSCKASGYDYTYYGISWVRQAPGQGLEWMGWISTYNTGTHYAPSLQGRVTMTTDTSTSTAYMELRSLRSDDTAVYYCARESYYGSGAFRGGMDVWGQGTTVTVSSASTKGPSVFPLAPSSKSTSGGTAALGCLVKDYFPEPVTVSWNSGALTSGVHTFPAVLQSSGLYSLSSVVTVPSSSLGTQTYICNVNHKPSNTKVDKKVEPKSCEKTHTCPECPAPEAAGAPSVFLFPPKPKDTLMISRTPEVTCVVVDVSHEDPEVKFNWYVDGVEVHNAKTKPREEQYNSTYRVVSVLTVLHQDWLNGKEYKCKVSNKALPAPIEKTISKAKGQPREPQVYTLPPSREEMTKNQVSLTCEVKGFYPSDIAVEWESNGQPENNYKTTPPVLDSDGSFFLYSKLTVDKSRWQQGNVFSCSVLHEALHSHYTQKSLSLSPGK
light 2: not shown
B3: TL1A-0372 monovalent bispecific antibody (bispecific antibody, human IgG1, kappa)
heavy 1: B2 heavy 2 with E228D, E235P, Y356C, T373W, E375L
heavy 2: not shown
light: not shown
B4: p40TL1A-0032 bispecific antibody (bispecific antibody)
heavy 1: B2 heavy 1 with L130K, V187S, R223D, R230P, Y351C, T368W, R411K
light 1: DIQMTQSPSSLSASVGDRVTITCRASQGISSWLAWYQQKPEKAPKSLIYAASSLQSGVPSRFSGSGSGTDFTLTISSLQPEDFATYYCQQYNIYPYTFGQGTKLEIKRTVAAPSVFIFPPSDEQLKSGTASVSCLLNNFYPREAKVQWKVDNALQSGNSQESVTEQDSKDSTYSLDSTLTLSKADYEKHKVYACEVTHQGLSSPVTKSFNRGEC
heavy 2: B2 heavy 2 with L135E, S190G, E228D, E235P, S361C, T373S, E375A, Y414V
light 2: not shown
B5: p40TL1A-0018 bispecific antibody (bispecific antibody, human IgG1, kappa)
heavy 1: B2 heavy 1 with R223D, R230P, T368W, R411K
light 1: not shown
heavy 2: B2 heavy 2 with E228D, E235P, T373S, E375A, Y414V
light 2: not shown
B6: p40TL1A-0024 bispecific antibody (bispecific antibody, human IgG1, kappa)
heavy 1: B2 heavy 1 with R223D, R230P
light 1: not shown
heavy 2: B2 heavy 2 with E228D, E235P
light 2: not shown
B7: p40TL1A-0021 bispecific antibody (bispecific antibody)
heavy 1: B2 heavy 1 with R230P
light 1: not shown
heavy 2: B2 heavy 2 with E235P
light 2: not shown
B8: p40-0003 antibody (antibody, human IgG1, kappa, V domains shown)
VH: EVQLVQSGAEVKKPGESLKISCKGSGYSFTTYWLGWVRQMPGKGLDWIGIMSPVDSDIRYSPSFQGQVTMSVDKSITTAYLQWNSLKASDTAMYYCARRRPGQGYFDFWGQGTLVTVSS
VL: DIQMTQSPSSLSASVGDRVTITCRASQGISSWLAWYQQKPEKAPKSLIYAASSLQSGVPSRFSGSGSGTDFTLTISSLQPEDFATYYCQQYNIYPYTFGQGTKLEIKR

The first test concerns the target T1, full-length human TL1A on CHO-K1 cells. The test can be described thus: flow cytometry on CHO-K1 cells stably expressing full-length human TL1A, PE anti-human IgG, median fluorescent intensity. On the procedure: A cell binding assay was performed to examine if the panel of [xTL1A] bivalent antibody variants could bind to human TL1A over-expressed on the cell surface. […] [xTL1A] bivalent antibody variants were incubated with cells on ice for 30-60 minutes at a concentration of either 1 μg/mL or 20 μg/mL. Cells were pelleted by centrifugation at 1500 RPM for 5 minutes at 4° C. and supernatant was discarded by aspiration. The cells were washed three times with DPBS with 4% FBS buffer as described. Cells were resuspended in 100 μL of PE-anti-human IgG (Life technologies Catalog number H10104) diluted 1:500 in DPBS with 4% FBS buffer and incubated on ice for 15 minutes. Cells were washed three times as described and resuspended in 200 μL of DPBS with 4% FBS buffer, then run on a flow cytometry instrument.
As to B1, the binding result was “no binding (tested: 20 ug/mL)”.

Another test concerns the target T2, recombinant human TL1A. The test can be described thus: cell-based or functional assay.
Turning to B2, the “NF-κB assay IC50 (TF-1 reporter cells)” value was 0.0911 nM and the “NF-κB assay, Bioactivity relative to TL1A-0372” value was found to be 0.9 fold.
Taken in the same sequence, the figures for B3 were 0.102 nM and 1 fold.
In the same order, the values of B4 are 0.131 nM and 1.3 fold.
With B5, the “NF-κB assay IC50 (TF-1 reporter cells)” value was found to be 0.105 nM and the “NF-κB assay, Bioactivity relative to TL1A-0372” value is 1 fold.
As to B6, the “NF-κB assay IC50 (TF-1 reporter cells)” value is 0.106 nM and the “NF-κB assay, Bioactivity relative to TL1A-0372” value was found to be 1 fold.
In the same order, the values of B7 are 0.0509 nM and 0.5 fold.

A further test has as its target T3, human IL-23. Briefly: cell-based or functional assay.
In the case of B2, the “KIT-225 STAT3 assay IL-23, Bioactivity relative to p40-0003” value was found to be 2.4 fold and the “KIT-225 STAT3 assay IL-23 IC50” value was 3.9 nM.
In the same order, the values of B4 are 2.3 fold and 3.8 nM.
In the case of B5, the “KIT-225 STAT3 assay IL-23, Bioactivity relative to p40-0003” value was 2.1 fold and the “KIT-225 STAT3 assay IL-23 IC50” value worked out at 3.4 nM.
For B6, the “KIT-225 STAT3 assay IL-23, Bioactivity relative to p40-0003” value was 2.2 fold and the “KIT-225 STAT3 assay IL-23 IC50” value turned out to be 3.6 nM.
Taken in the same sequence, the figures for B7 were 1.4 fold and 3.4 nM.
Taken in the same sequence, the figures for B8 were 1 fold and 1.6 nM.

The target of a further test is T4, human IL-12. Briefly: cell-based or functional assay.
Turning to B2, the “KIT-225 STAT4 assay IL-12, Bioactivity relative to p40-0003” value was 1.7 fold and the “KIT-225 STAT4 assay IL-12 IC50” value was found to be 5.7 nM.
In the case of B4, the “KIT-225 STAT4 assay IL-12, Bioactivity relative to p40-0003” value was found to be 1.4 fold and the “KIT-225 STAT4 assay IL-12 IC50” value was 4.6 nM.
Taken in the same sequence, the figures for B5 were 2 fold and 6.6 nM.
On to B6, for which the “KIT-225 STAT4 assay IL-12, Bioactivity relative to p40-0003” value is 1.3 fold and the “KIT-225 STAT4 assay IL-12 IC50” value was determined as 4.3 nM.
Taken in the same sequence, the figures for B7 were 0.9 fold and 3 nM.
Taken in the same sequence, the figures for B8 were 1 fold and 3.3 nM.
